For one substance, Kd results are on record in patent publication US20250011430A1.

The assay addresses human B7H3 ECD-His (human) (UniProt Q5ZPR3). Description: ForteBio BLI, antibody on AHQ sensor, 60 nM antigen, 1:1 model.

Turning to Enoblituzumab (antibody), the dissociation constant Kd came out at 0.773 nM.

What is called Kd is the concentration at which binding is half-saturated.
